Like-named read-outs stand apart in the source and are kept apart here.

In general, IC50 refers to the point on the concentration scale where inhibition reaches its midpoint. Low readings indicate higher potency, high ones lower potency. As a reminder, the Kd is the concentration at which binding is half-saturated. Read a low Kd as higher affinity.

Assay [1] has as its target alpha1d adrenergic receptor (expressed in Pichia pastoris, membranes).
Assay [2] concerns the target alpha2a adrenergic receptor (expressed in Pichia pastoris, membranes).
Assay [3] concerns the target beta1 adrenergic receptor (expressed in Pichia pastoris, membranes).
Assay [4] deals with alpha1a adrenergic receptor (expressed in Pichia pastoris, membranes).
alpha1a adrenergic receptor (expressed in Pichia pastoris, membranes), sequence (P35348 whole entry): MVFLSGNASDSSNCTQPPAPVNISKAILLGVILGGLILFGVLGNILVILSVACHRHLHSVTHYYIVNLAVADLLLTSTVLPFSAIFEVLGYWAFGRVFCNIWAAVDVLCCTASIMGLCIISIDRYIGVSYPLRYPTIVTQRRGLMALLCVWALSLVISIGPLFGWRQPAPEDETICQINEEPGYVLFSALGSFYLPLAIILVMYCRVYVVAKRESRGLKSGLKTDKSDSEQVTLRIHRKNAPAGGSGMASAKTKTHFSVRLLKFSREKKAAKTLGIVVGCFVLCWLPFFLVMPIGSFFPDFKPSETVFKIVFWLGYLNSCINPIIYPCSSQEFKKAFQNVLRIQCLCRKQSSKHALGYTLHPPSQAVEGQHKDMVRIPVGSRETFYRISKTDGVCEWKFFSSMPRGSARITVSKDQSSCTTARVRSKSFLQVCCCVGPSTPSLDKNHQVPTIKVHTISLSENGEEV
For assay [5] the target is unchanged. This is another data set of the same source.
For assay [6] the target is unchanged. The source holds these as a separate data set.

beta1 adrenergic receptor (expressed in Pichia pastoris, membranes), sequence (P08588 whole entry): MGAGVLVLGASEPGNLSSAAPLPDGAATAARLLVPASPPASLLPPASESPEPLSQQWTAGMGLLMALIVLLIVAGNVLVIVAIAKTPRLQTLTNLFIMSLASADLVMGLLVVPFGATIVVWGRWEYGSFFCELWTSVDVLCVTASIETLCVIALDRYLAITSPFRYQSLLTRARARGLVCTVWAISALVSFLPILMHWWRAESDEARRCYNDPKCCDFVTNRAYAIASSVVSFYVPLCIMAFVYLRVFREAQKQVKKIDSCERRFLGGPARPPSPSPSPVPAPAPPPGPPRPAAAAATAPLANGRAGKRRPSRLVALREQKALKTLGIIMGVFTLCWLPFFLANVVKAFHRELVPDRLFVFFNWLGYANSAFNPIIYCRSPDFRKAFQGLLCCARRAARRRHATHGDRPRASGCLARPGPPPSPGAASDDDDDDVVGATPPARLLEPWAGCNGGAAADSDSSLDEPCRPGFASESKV
alpha2a adrenergic receptor (expressed in Pichia pastoris, membranes), sequence (P08913 whole entry): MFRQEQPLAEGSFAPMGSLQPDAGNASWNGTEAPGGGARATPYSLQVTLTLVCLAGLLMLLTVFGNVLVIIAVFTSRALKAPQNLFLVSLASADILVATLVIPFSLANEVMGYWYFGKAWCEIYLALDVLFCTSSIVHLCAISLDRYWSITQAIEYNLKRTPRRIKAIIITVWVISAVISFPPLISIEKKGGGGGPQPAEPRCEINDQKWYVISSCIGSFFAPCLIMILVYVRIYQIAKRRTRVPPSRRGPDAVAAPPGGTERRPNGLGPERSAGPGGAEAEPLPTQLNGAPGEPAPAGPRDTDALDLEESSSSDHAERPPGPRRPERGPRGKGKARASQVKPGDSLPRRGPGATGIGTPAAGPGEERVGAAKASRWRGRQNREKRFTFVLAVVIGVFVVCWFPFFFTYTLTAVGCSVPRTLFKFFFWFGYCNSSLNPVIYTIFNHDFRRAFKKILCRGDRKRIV
alpha1d adrenergic receptor (expressed in Pichia pastoris, membranes), sequence (P25100 whole entry): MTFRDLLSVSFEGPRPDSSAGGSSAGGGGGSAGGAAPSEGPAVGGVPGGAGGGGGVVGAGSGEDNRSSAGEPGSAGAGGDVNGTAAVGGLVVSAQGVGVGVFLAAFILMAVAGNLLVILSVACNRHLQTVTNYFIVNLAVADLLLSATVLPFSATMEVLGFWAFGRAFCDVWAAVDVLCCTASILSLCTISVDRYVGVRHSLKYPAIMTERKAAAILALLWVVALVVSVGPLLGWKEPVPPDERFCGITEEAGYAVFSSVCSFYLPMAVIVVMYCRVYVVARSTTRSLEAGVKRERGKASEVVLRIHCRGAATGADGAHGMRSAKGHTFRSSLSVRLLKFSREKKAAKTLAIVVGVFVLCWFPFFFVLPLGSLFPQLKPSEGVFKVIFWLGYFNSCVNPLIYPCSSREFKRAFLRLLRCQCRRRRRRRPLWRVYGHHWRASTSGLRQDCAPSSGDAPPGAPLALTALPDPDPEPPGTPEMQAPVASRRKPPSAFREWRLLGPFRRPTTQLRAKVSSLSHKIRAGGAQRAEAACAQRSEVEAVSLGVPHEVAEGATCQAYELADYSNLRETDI

Regarding AdTx1 peptide, the IC50 was 9900 nM in assay [1]; > 50000 nM in assay [2]; > 50000 nM in assay [3]; 1.8 nM in assay [4]; 0.5 nM in assay [5].
As to radiolabeled AdTx1 peptide (125I-AdTx1), the Kd in assay [6] was found to be 0.8 nM.

Source of the values: US20110117017A1, “PEPTIDES WITH PROPERTIES OF AN […] FOR THE ALPHA 1A […] RECEPTOR AND USES THEREOF” (priority 2006, published 2011).
